Columns and labels:
[1] = biological target: WT BAM complex (BamABCDE-His6) (Escherichia coli K-12); assay: cryo-EM structure; purified BAM (WT or BAM-LL) mixed with Fab1 in DDM micelles, pH 8.0, 150 mM NaCl; WT BAM with a 2-fold molar excess of Fab1, complex isolated on Superdex 200; BAM-LL and Fab1 mixed 1:1; conditions: both partners purified
[2] = biological target: BamA, as the subunit of WT BAM (Escherichia coli K-12); assay: as above; conditions: both partners purified

B1: Fab1, anti-BamA monoclonal antibody Fab fragment (Fab, V domains shown)
VH: EVQLVESGGGLVQPGRSLKLSCVASRFTFSNYGMNWIRQTPGKGLEWVAYIGSTSSHIYYAETVKGRFTISRDNAKNTLYLQMTGLRSEDTALYYCVGHVRKLGAFFDYWGQGAMVTVSS
VL: DIQMTQSPASLSASLGETVTIECRASEDIHSRLAWYQQKPGKSPQLLIYNANSLHTGVPSRFSGSGSGTQFSLKINSLQSEDVASYFCLQYYNYPPYTFGAGAKLELR
notes: heavy chain of Fab1 in the crystal structure deposited here (PDB 7BM5); light chain of Fab1 in the crystal structure deposited here (PDB 7BM5); also called bactericidal Fab fragment; Fab of MAB1; source: E. coli, purified (Protein G, SP Sepharose, Superdex 75)
binding result [1]: binds | binding result [2]: binds
